Key:
HeLa Kyoto [1] = test: solubility change mitosis vs G1/S (difference of NP-40 vs SDS log2 ratios) (log2 ratio difference); higher = more soluble in mitosis
HeLa Kyoto [2] = test: melting temperature (median over replicates), in situ; higher = more thermally stable
HeLa Kyoto [3] = test: solubility in G1/S (NP-40 vs SDS abundance) (log2 ratio); higher = more soluble; details: cell cycle stage: G1/S
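Throughout, for melting temperature (median over replicates), in situ: HeLa Kyoto cells synchronized by double thymidine or nocodazole block, proteins quantified by TMT10plex mass spectrometry, three independent biological replicates.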
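Throughout, for solubility change mitosis vs G1/S (difference of NP-40 vs SDS log2 ratios): synchronized HeLa Kyoto cells (double thymidine block for G1/S, nocodazole release for mitosis), protein amounts in NP-40 versus SDS lysates quantified by mass spectrometry, three biological replicates.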
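Throughout, for solubility in G1/S (NP-40 vs SDS abundance): HeLa Kyoto cells arrested at G1/S by double thymidine block, proteins quantified by TMT10plex mass spectrometry in mild NP-40 versus SDS extracts, three biological replicates.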

MGKEKTHINIVVIGHVDSGKSTTTGHLIYKCGGIDKRTIEKFEKEAAEMGKGSFKYAWVLDKLKAERERGITIDISLWKFETSKYYVTIIDAPGHRDFIKNMITGTSQADCAVLIVAAGVGEFEAGISKNGQTREHALLAYTLGVKQLIVGVNKMDSTEPPYSQKRYEEIVKEVSTYIKKIGYNPDTVAFVPISGWNGDNMLEPSANMPWFKGWKVTRKDGNASGTTLLEALDCILPPTRPTDKPLRLPLQDVYKIGGIGTVPVGRVETGVLKPGMVVTFAPVNVTTEVKSVEMHHEALSEALPGDNVGFKVKNVSVKDVRRGNVAGDSKNDPPMEAAGFTAQVIILNHPGQISAGYAPVLDCHMAHIACKFAELKEKIDRRSGKKLEDGPKFLKSGDAAIVDMVPGKPMCVESFSDYPPLGRFAVRDMRQTVAVGVIKAVDKKAAGAGKVTKSAQKAQKAK [EEF1A1P5]
solubility change mitosis (log2) (HeLa Kyoto [1]): -0.0239
melting temperature (HeLa Kyoto [2]; cell cycle stage: G1/S): 52.4 °C
melting temperature (HeLa Kyoto [2]; cell cycle stage: mitosis): 52.4 °C
solubility in G1/S (log2) (HeLa Kyoto [3]): 0.301

MERFVVTAPPARNRSKTALYVTPLDRVTEFGGELHEDGGKLFCTSCNVVLNHVRKSAISDHLKSKTHTKRKAEFEEQNVRKKQRPLTASLQCNSTAQTEKVSVIQDFVKMCLEANIPLEKADHPAVRAFLSRHVKNGGSIPKSDQLRRAYLPDGYENENQLLNSQDC [CGGBP1]
solubility change mitosis (log2) (HeLa Kyoto [1]): 0.0407
melting temperature (HeLa Kyoto [2]; cell cycle stage: G1/S): 51.7 °C
melting temperature (HeLa Kyoto [2]; cell cycle stage: mitosis): 51.8 °C
solubility in G1/S (log2) (HeLa Kyoto [3]): 0.332

MKIGSGFLSGGGGTGSSGGSGSGGGGSGGGGGGGSSGRRAEMEPTFPQGMVMFNHRLPPVTSFTRPAGSAAPPPQCVLSSSTSAAPAAEPPPPPAPDMTFKKEPAASAAAFPSQRTSWGFLQSLVSIKQEKPADPEEQQSHHHHHHHHYGGLFAGAEERSPGLGGGEGGSHGVIQDLSILHQHVQQQPAQHHRDVLLSSSSRTDDHHGTEEPKQDTNVKKAKRPKPESQGIKAKRKPSASSKPSLVGDGEGAILSPSQKPHICDHCSAAFRSSYHLRRHVLIHTGERPFQCSQCSMGFIQKYLLQRHEKIHSREKPFGCDQCSMKFIQKYHMERHKRTHSGEKPYKCDTCQQYFSRTDRLLKHRRTCGEVIVKGATSAEPGSSNHTNMGNLAVLSQGNTSSSRRKTKSKSIAIENKEQKTGKTNESQISNNINMQSYSVEMPTVSSSGGIIGTGIDELQKRVPKLIFKKGSRKNTDKNYLNFVSPLPDIVGQKSLSGKPSGSLGIVSNNSVETIGLLQSTSGKQGQISSNYDDAMQFSKKRRYLPTASSNSAFSINVGHMVSQQSVIQSAGVSVLDNEAPLSLIDSSALNAEIKSCHDKSGIPDEVLQSILDQYSNKSESQKEDPFNIAEPRVDLHTSGEHSELVQEENLSPGTQTPSNDKASMLQEYSKYLQQAFEKSTNASFTLGHGFQFVSLSSPLHNHTLFPEKQIYTTSPLECGFGQSVTSVLPSSLPKPPFGMLFGSQPGLYLSALDATHQQLTPSQELDDLIDSQKNLETSSAFQSSSQKLTSQKEQKNLESSTGFQIPSQELASQIDPQKDIEPRTTYQIENFAQAFGSQFKSGSRVPMTFITNSNGEVDHRVRTSVSDFSGYTNMMSDVSEPCSTRVKTPTSQSYR [ZNF281]
solubility change mitosis (log2) (HeLa Kyoto [1]): 0.0949
melting temperature (HeLa Kyoto [2]; cell cycle stage: G1/S): 45.1 °C
melting temperature (HeLa Kyoto [2]; cell cycle stage: mitosis): 47.4 °C
solubility in G1/S (log2) (HeLa Kyoto [3]): -0.357

MGEIEGTYRVLQTAGMRLGAQTPVGVSTLEPGQTLLPRMQEKHLHLRVKLLDNTMEIFDIEPKCDGQVLLTQVWKRLNLVECDYFGMEFQNTQSYWIWLEPMKPIIRQIRRPKNVVLRLAVKFFPPDPGQLQEEYTRYLFALQLKRDLLEERLTCADTTAALLTSHLLQSEIGDYDETLDREHLKVNEYLPGQQHCLEKILEFHQKHVGQTPAESDFQVLEIARKLEMYGIRFHMASDREGTKIQLAVSHMGVLVFQGTTKINTFNWSKVRKLSFKRKRFLIKLHPEVHGPYQDTLEFLLGSRDECKNFWKICVEYHTFFRLLDQPKPKAKAVFFSRGSSFRYSGRTQKQLVDYFKDSGMKRIPYERRHSKTHTSVRALTADLPKQSISFPEGLRTPASPSSANAFYSLSPSTLVPSGLPEFKDSSSSLTDPQVSYVKSPAAERRSGAVAGGPDTPSAQPLGPPALQPGPGLSTKSPQPSPSSRKSPLSLSPAFQVPLGPAEQGSSPLLSPVLSDAGGAGMDCEEPRHKRVPADEAYFIVKEILATERTYLKDLEVITVWFRSAVVKEDAMPATLMTLLFSNIDPIYEFHRGFLREVEQRLALWEGPSKAHTKGSHQRIGDILLRNMRQLKEFTSYFQRHDEVLTELEKATKRCKKLEAVYKEFELQKVCYLPLNTFLLKPIQRLLHYRLLLRRLCGHYSPGHHDYADCHDALKAITEVTTTLQHILIRLENLQKLTELQRDLVGIENLIAPGREFIREGCLHKLTKKGLQQRMFFLFSDMLLYTSKGVAGTSHFRIRGLLPLQGMLVEESDNEWSVPHCFTIYAAQKTIVVAASTRLEKEKWMLDLNSAIQAAKSGGDTAPALPGRTVCTRPPRSPNEVSLEQESEDDARGVRSSLEGHGQHRANTTMHVCWYRNTSVSRADHSAAVENQLSGYLLRKFKNSHGWQKLWVVFTNFCLFFYKTHQDDYPLASLPLLGYSVSIPREADGIHKDYVFKLQFKSHVYFFRAESKYTFERWMEVIQGASSSAGRAPSIVQDGPQPSSGLEGMVRGKEE [FARP2]
solubility change mitosis (log2) (HeLa Kyoto [1]): -0.0474
melting temperature (HeLa Kyoto [2]; cell cycle stage: mitosis): 50 °C
solubility in G1/S (log2) (HeLa Kyoto [3]): -0.166

MSGLDGVKRTTPLQTHSIIISDQVPSDQDAHQYLRLRDQSEATQVMAEPGEGGSETVALPPPPPSEEGGVPQDAAGRGGTPQIRVVGGRGHVAIKAGQEEGQPPAEGLAAASVVMAADRSLKKGVQGGEKALEICGAQRSASELTAGAEAEAEEVKTGKCATVSAAVAERESAEVVKEGLAEKEVMEEQMEVEEQPPEGEEIEVAEEDRLEEEAREEEGPWPLHEALRMDPLEAIQLELDTVNAQADRAFQQLEHKFGRMRRHYLERRNYIIQNIPGFWMTAFRNHPQLSAMIRGQDAEMLRYITNLEVKELRHPRTGCKFKFFFRRNPYFRNKLIVKEYEVRSSGRVVSLSTPIIWRRGHEPQSFIRRNQDLICSFFTWFSDHSLPESDKIAEIIKEDLWPNPLQYYLLREGVRRARRRPLREPVEIPRPFGFQSG [TSPYL1]
solubility change mitosis (log2) (HeLa Kyoto [1]): 0.141
melting temperature (HeLa Kyoto [2]; cell cycle stage: G1/S): 51.2 °C
melting temperature (HeLa Kyoto [2]; cell cycle stage: mitosis): 49.9 °C
solubility in G1/S (log2) (HeLa Kyoto [3]): -0.443

MAVSGFTLGTCILLLHISYVANYPNGKVTQSCHGMIPEHGHSPQSVPVHDIYVSQMTFRPGDQIEVTLSGHPFKGFLLEARNAEDLNGPPIGSFTLIDSEVSQLLTCEDIQGSAVSHRSASKKTEIKVYWNAPSSAPNHTQFLVTVVEKYKIYWVKIPGPIISQPNAFPFTTPKATVVPLPTLPPVSHLTKPFSASDCGNKKFCIRSPLNCDPEKEASCVFLSFTRDDQSVMVEMSGPSKGYLSFALSHDQWMGDDDAYLCIHEDQTVYIQPSHLTGRSHPVMDSRDTLEDMAWRLADGVMQCSFRRNITLPGVKNRFDLNTSYYIFLADGAANDGRIYKHSQQPLITYEKYDVTDSPKNIGGSHSVLLLKVHGALMFVAWMTTVSIGVLVARFFKPVWSKAFLLGEAAWFQVHRMLMFTTTVLTCIAFVMPFIYRGGWSRHAGYHPYLGCIVMTLAVLQPLLAVFRPPLHDPRRQMFNWTHWSMGTAARIIAVAAMFLGMDLPGLNLPDSWKTYAMTGFVAWHVGTEVVLEVHAYRLSRKVEILDDDRIQILQSFTAVETEGHAFKKAVLAIYVCGNVTFLIIFLSAINHL [FRRS1]
solubility change mitosis (log2) (HeLa Kyoto [1]): 0.186
melting temperature (HeLa Kyoto [2]; cell cycle stage: G1/S): 58.8 °C
solubility in G1/S (log2) (HeLa Kyoto [3]): 0.0918

Source: the supplement of paper PMC5998384
